Test results reported in the nanobody polyreactivity screen of Harvey et al. (2022).

Test: yeast display, Sf9 membrane polyspecificity reagent, FACS + sequencing; frameworks hold sequencing errors
How it was run: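 A synthetic nanobody library was expressed on Saccharomyces cerevisiae BJ5465 by galactose induction for 36–48 hours. The library was stained for 1 hour at 4 °C with 10% biotinylated, detergent-solubilized Sf9 membrane reagent and enriched with streptavidin microbeads before FACS. Low and high (top ~1%) gates were set on anti-HA fluorescence for expression and streptavidin fluorescence for reagent binding, and each polyreactivity label reflects the gate of origin.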

QVQLVESGGGLVQAGGSLRLSCAASGIIFSSYVMGWYRQAPGKERELVAAISSRGVSTYYADSVKGRFTISRDNAKNTVYLQMNSLKPEDTAVYYCAGVGPSYVRYYYWGQGTQVTVSS
polyreactivity (PSR sort gate): high polyreactivity

QVQLVESGGGLVQAGGSLRLSCAASGIIFSTYAMGWYRQAPGKERELVAAISDGGASTYYADSVKGRFTISRDNAKNTVYLQMNSLKPEDTAVYFCAAVQTAGQFRYGYWGQGTQVTVSS
polyreactivity (PSR sort gate): high polyreactivity

QVQLVESGGGLVQAGGSLRLSCAASGIIFSTYAMGWYRQAPGKERELVAAISVSGGRTYYADSVKGRFTISRDNAKNTVYLQMNSLKREDTAVYSCNALSSTEYDYWGQGTQVTVSS
polyreactivity (PSR sort gate): high polyreactivity

QVQLVESGGGLVQAGGSLRLSCAASGIIFSWYSMGWYIEAPGKERELVAAISWSGGRTYYSDSVKGRFTISRDNAKNNVYLQMNSLKPEDTAVYYCAAERNRYSHWEARYYWGQGTQVTVSS
polyreactivity (PSR sort gate): high polyreactivity

QVQLVESGGGLVQAGGSLRLSCAASGIIFSYYAMGWYRPEHGKEREFVAVITTGGGSTSYADSVKGRFTISRDNAKNTVYLQMNSLKPEDTAVYYCTAGHLGLDGIQDGVDYWGQGTQVTVSS
polyreactivity (PSR sort gate): low polyreactivity

QVQLVESGGGLVQAGGSLRLSCAASGIIFTGYAMGWYRQAPGKERELVAAISESGGSTYYADSVKGRFTISRDNAKNTVYLQMNSLKPEDTAVDYCAVDALSITYGYWGQGTQVTVSS
polyreactivity (PSR sort gate): low polyreactivity

QVQLVESGGGLVQAGGSLRLSCAASGIIFTINAMGWYRQAPGKERELVAAISGRGARTYYADSVKGRFTISRDNAKNTVYLQMNSLKPEDTAVYYCNAANSRLHGSDYWGQGTQVTVSS
polyreactivity (PSR sort gate): high polyreactivity

QVQLVESGGGLVQAGGSLRLSCAASGIIFTNNAIGWYRQAPGKERELGAAITSGGRTYYADSVKGRFTISRDNAKNTVSLQMNSLKPEDTAVYYCNARYYYGGWRVGYWGQGTQLTVSS
polyreactivity (PSR sort gate): high polyreactivity

QVQLVESGGGLVQAGGSLRLSCAASGIIFTPYTMGWYRQAPGKERELVAAITGSGGSTYYADSVKGRFTISRDNAKNTVYLQMNSLKPEDTAVYYCAAYKQYRFYRYDYWGQGTQVTVSS
polyreactivity (PSR sort gate): high polyreactivity

QVQLVESGGGLVQAGGSLRLSCAASGIIFTRYAMGWYRQAPGKERELVAAITTSGGRTYYADSVKGRFTISRDNAKNTVYLQMNSLKPEDTAVYYCAVSGHARYDYWGQGTQVTVSS
polyreactivity (PSR sort gate): high polyreactivity

QVQLVESGGGLVQAGGSLRLSCAASGIIFTRYVMGWYRQAPGKQRELVAVISRRGGTTYYADSVKGRFTISRDNAKNTVYLQMNSLKPEVTAVYYCNTDGYRYPGSGINYYYWGQGTQVTVSS
polyreactivity (PSR sort gate): high polyreactivity

QVQLVESGGGLVQAGGSLRLSCAASGIIFTSNTMGWYRQAPGKEREFVASINWNGSSTYADSVKGRFTISRDNAKNTVFLQMNSLKPEDTAVYDCNADYYRNSVQFSLYDYWGHGTQVTVSS
polyreactivity (PSR sort gate): low polyreactivity

QVQLVESGGGLVQAGGSLRLSCAASGIIFTSYVMGWYRQAPGKERELVAAISSDGGSTYYADSVKGRFTISRDNAKNTVYLQMNSLKPEDTAVYYCAVDWLEIGDTGFDYWGQGTQVTVSS
polyreactivity (PSR sort gate): low polyreactivity

QVQLVESGGGLVQAGGSLRLSCAASGIIFTVYTMGWYRQAPGKERELVAAITTNGGSTYYADSVKGRFTISRDNAKNTVYLQMNSLKPEDTAVYYCAADYPYKPITYDYWGQGTQVTVSS
polyreactivity (PSR sort gate): low polyreactivity

QVQLVESGGGLVQAGGSLRLSCAASGIIFTYAMGWYRQAPGKERELVAAIDWRGGRTYYADTVKGRFTISRDNAKNTVYLEMNSLKPEDTAVYYCAARLPGGTYYWGQGTQVTVSS
polyreactivity (PSR sort gate): high polyreactivity

QVQLVESGGGLVQAGGSLRLSCAASGIIFTYNAMGWYRQPPGKERELVAAISASGSSTYYADSVKGRFTISLDNAKNTVYLQMNSLKPEDTAVYYCAARTRRGLARYDYWGQGTQGTVSS
polyreactivity (PSR sort gate): high polyreactivity

QVQLVESGGGLVQAGGSLRLSCAASGIIFTYYAMGWYIQAPGKERELVAGITWSGTTTYYADSVKGRFTISRDNAKKTVYLQMNSLKPEDPAVYYCNALGYYEHDYWGQGTQVTVSS
polyreactivity (PSR sort gate): low polyreactivity

QVQLVESGGGLVQAGGSLRLSCAASGIIFTYYAMGWYRQAPGKEREFVAAISNGGSNTRYADSVKGRFTISRDNAKNTVYLQMNSLKPEDTAVYYCAARAYQHYNWGQGTQVTVSS
polyreactivity (PSR sort gate): high polyreactivity

QVQLVESGGGLVQAGGSLRLSCAASGIIFTYYAMGWYRQAPGKEREIVAAISWSGGNTYYADSVKGRFTISRDHAKNTVYLQMNSLKPEDTAVYYCARVQYWFYKPMYYWGQGTQVTVSS
polyreactivity (PSR sort gate): high polyreactivity

QVQLVESGGGLVQAGGSLRLSCAASGIIFVPNTMGWYRQAPGKERELVAAIRWSGGTTYYADSVKGRFTISRDNAKNTVYLQMNSLKPEDTAVYYCAARYGSRSSYLAYYYWGQGTQVTVSS
polyreactivity (PSR sort gate): high polyreactivity

QVQLVESGGGLVQAGGSLRLSCAASGIIFVRNAMGWYRQAPGKERELVAAITWRGSTYYADSVKGRFTISRDNAKNTVYLQMNSLKPEDTAVYYCAAQWLYLEYDYWGQGTQVTVSS
polyreactivity (PSR sort gate): high polyreactivity

QVQLVESGGGLVQAGGSLRLSCAASGIIFVRYAMGWYRQAPGKERELVAAITWRGSTYYADSVKGRFTISRDNAKNTVYLQMNSLKPEDTAVYYCAAVKPHYTSFRDYYCGQGTQVTVSS
polyreactivity (PSR sort gate): high polyreactivity

QVQLVESGGGLVQAGGSLRLSCAASGIIFVSYAMGWYRQAPGKEWELVADISSGGRTYYADSVKGRFTISRDNAKNTVYLPMNSLKPEDTAVYYCAKVKRDLQYPGLPEVLNREYWGQGTQVTVSS
polyreactivity (PSR sort gate): high polyreactivity

QVQLVESGGGLVQAGGSLRLSCAASGIIFVYNAMGWYRQAPGKERELVAGISFIGDSTYYADSVKGRFTISRDNAKNTVYLQMNSLKPEDTAVYYCAADYYLPYWFFVGYDYWGQGTQVTVSS
polyreactivity (PSR sort gate): low polyreactivity

QVQLVESGGGLVQAGGSLRLSCAASGIIFVYYDMGWYRQAPGKERELVASISRGGSTNYADSVKGRFTISRDNAKNTVYLQMNSLKPEDTAVYYCAAGSYSILVHLVRYYYWGQGTQVTVSS
polyreactivity (PSR sort gate): high polyreactivity

QVQLVESGGGLVQAGGSLRLSCAASGIIFVYYTLGWYRQAPGKERELVAAITSGGSTYYADSVKGRFTISRDNAKNTVYLQMNSLKPEDTAVYYCAARTYRQPYYILDYYWGQGTQVTVSS
polyreactivity (PSR sort gate): high polyreactivity

QVQLVESGGGLVQAGGSLRLSCAASGIIFVYYVMGWYRQAPGKERELVAAISWDGGSTYYADSVKGRFTISRDNAKNTVYLQMNSLKPEDTAVYYCAARYKGNPDRYGYWGLGTQVTVSS
polyreactivity (PSR sort gate): high polyreactivity

QVQLVESGGGLVQAGGSLRLSCAASGIIFWAYAMGWYRQAPGKERELVAAISWSGGRTYYADSVKGRFTISRDNAKNTVYLQMNSLKPEDTAVYYCAAYRFLLYDYWGQGTQVTVSS
polyreactivity (PSR sort gate): high polyreactivity

QVQLVESGGGLVQAGGSLRLSCAASGIIFWDYAMGWYSQAPGKERELVAAISSSGSTTYYADSVKGRFTISRDNAKNTVYLQMNSLKPEDTAVYYCAAESLYEDDKGDYWGQGTQVTVSS
polyreactivity (PSR sort gate): high polyreactivity

QVQLVESGGGLVQAGGSLRLSCAASGIIFWRYAMGWYRQAPGKERELDAGITSRGGSTYYADSVKGRFTISRDNAKNTVYLQMNSLKPEDTAVYYCNAPRGSRRSYRRTEYYYWGQGTQVTVSS
polyreactivity (PSR sort gate): high polyreactivity

QVQLVESGGGLVQAGGSLRLSCAASGIIFWSSVMGWYRQAPGKERELVAAITFSGGSTYYADSVKGRFTISRDNAKNPVYLQMNSLKPEDTAVYYCAARYKLVRRYDYWGQGTQVTVSS
polyreactivity (PSR sort gate): low polyreactivity

QVQLVESGGGLVQAGGSLRLSCAASGIIFWSYTMGWYSQAPGKERELVAVITSDGSTNYADSVKGRITISRDNAKNSVYLQMKSLKPEDTAVYDCAADPWLGTGRYDYWGQGTQVTVSS
polyreactivity (PSR sort gate): low polyreactivity
